We go through 22 molecules from patent publication US20190336574A1 (TRUSTEES OF PRINCETON UNIVERSITY, published 2019).

Numbering of substitutions follows the chain as printed. Numbers in names are those of the source. Where no end group is shown, it is not given here.

B1: His-SND1(16-339) P43G/R324E (protein)
single chain: VPTVQRGIIKMVLSGCAIIVRGQPRGGGPPERQINLSNIRAGNLARRAAATQPDAKDTPDEPWAFPAREFLRKKLIGKEVCFTIENKTPQGREYGMIYLGKDTNGENIAESLVAEGLATRREGMRANNPEQNRLSECEEQAKAAKKGMWSEGNGSHTIRDLKYTIENPRHFVDSHHQKPVNAIIEHVRDGSVVRALLLPDYYLVTVMLSGIKCPTFRREADGSETPEPFAAEAKFFTESRLLQRDVQIILESCHNQNILGTILHPNGNITELLLKEGFARCVDWSIAVYTRGAEKLRAAERFAKERRLEIWRDYVAPTANLDQK
B2: His-SND1 (16-339), SN1/2 domains, wild type (other)
chain: B1 single chain with G28P, E309R
notes: also called His6-SND1 harboring the SN1/2 domains; not shown: N-terminal His tag (His6, His8 or His) with TEV site, pQlink vector
B3: SND1 (16-339) F250A (other)
chain: B1 single chain with G28P, F235A, E309R
notes: not shown: N-terminal His tag (His6, His8 or His) with TEV site, pQlink vector
B4: SND1 (16-339) R324A (other)
chain: B1 single chain with G28P, E309A
notes: as for B3
B5: SND1 (16-339) R255E (other)
chain: B1 single chain with G28P, R240E, E309R
notes: as for B3
B6: SND1 (16-339) R316E (negative control mutation outside the interface) (other)
chain: B1 single chain with G28P, R301E, E309R
notes: as for B3
B7: His-SND1(16-339) P43G (other)
single chain: B1 single chain with E309R
notes: mutant named only on the sheet
B8: SND1 (16-339) R324E (other)
chain: B1 single chain with G28P
notes: as for B3
B9: SND1 (16-339) Δ39-43 (deletion in the SN1 Lβ2-β3 loop) (other)
chain: VPTVQRGIIKMVLSGCAIIVRGQPPERQINLSNIRAGNLARRAAATQPDAKDTPDEPWAFPAREFLRKKLIGKEVCFTIENKTPQGREYGMIYLGKDTNGENIAESLVAEGLATRREGMRANNPEQNRLSECEEQAKAAKKGMWSEGNGSHTIRDLKYTIENPRHFVDSHHQKPVNAIIEHVRDGSVVRALLLPDYYLVTVMLSGIKCPTFRREADGSETPEPFAAEAKFFTESRLLQRDVQIILESCHNQNILGTILHPNGNITELLLKEGFARCVDWSIAVYTRGAEKLRAAERFAKERRLRIWRDYVAPTANLDQK
notes: also called 439-43; not shown: N-terminal His tag (His6, His8 or His) with TEV site, pQlink vector
B10: Myc-MTDH D393R, full-length human (other)
chain: MAARSWQDELAQQAEEGSARLREMLSVGLGFLRTELGLDLGLEPKRYPGWVILVGTGALGLLLLFLLGYGWAAACAGSRKKRRSPPRKREEAAAVPAAAPDDLALLKNLRSEEQKKKNRKKLSEKPKPNGRTVEVAEGEAVRTPQSVTAKQPPEIDKKNEKSKKNKKKSKSDAKAVQNSSRHDGKEVDEGAWETKISHREKRQQRKRDKVLTDSGSLDSTIPGIENTITVTTEQLTTASFPVGSKKNKGDSHLNVQVSNFKSGKGDSTLQVSSGLNENLTVNGGGWNEKSVKLSSQISAGEEKWNSVSPASAGKRKAEPSAWSQDTGDANTNGKDWGRSWSDRSIFSGIGSTAEPVSQSTTSDYQWDVSRNQPYIDDEWSGLNGLSSADPNSRWNAPAEEWGNWVDEERASLLKSQEPIPDDQKVSDDDKEKGEGALPTGKSKKKKKKKKKQGEDNSTAQDTEELEKEIREDLPVNTSKTRPKQEKAFSLKTISTSDPAEVLVKNSQPIKTLPPATSTEPSVILSKSDSDKSSSQVPPILQETDKSKSNTKQNSVPPSQTKSETSWESPKQIKKKKKARRET
notes: Full-length, Myc-tagged; also called SPM12
B11: Myc-MTDH E407R, full-length human (other)
chain: B10 chain with R393D, E407R
notes: Full-length, Myc-tagged; also called SPM33
B12: Myc-MTDH D406R, full-length human (other)
chain: B10 chain with R393D, D406R
notes: Full-length, Myc-tagged; also called SPM32
B13: Myc-MTDH W404D, full-length human (other)
chain: B10 chain with R393D, W404D
notes: Full-length, Myc-tagged; also called SPM31
B14: GST-MTDH (386-407), wild type (other)
chain: SSADPNSDWNAPAEEWGNWVDE
modifications: not fully specified (N-terminus)
notes: not shown: N-terminal GST tag with TEV site, pQlink vector
B15: GST-MTDH (364-582), wild type (other)
chain: YQWDVSRNQPYIDDEWSGLNGLSSADPNSDWNAPAEEWGNWVDEERASLLKSQEPIPDDQKVSDDDKEKGEGALPTGKSKKKKKKKKKQGEDNSTAQDTEELEKEIREDLPVNTSKTRPKQEKAFSLKTISTSDPAEVLVKNSQPIKTLPPATSTEPSVILSKSDSDKSSSQVPPILQETDKSKSNTKQNSVPPSQTKSETSWESPKQIKKKKKARRET
notes: as for B14
B16: GST-MTDH (364-582) W401D (other)
chain: B15 chain with W38D
notes: as for B14
B17: GST-MTDH (364-582) E400A (other)
chain: B15 chain with E37A
notes: as for B14
B18: GST-MTDH (364-582) N403A (other)
chain: B15 chain with N40A
notes: as for B14
B19: GST-MTDH (364-582) D389R (other)
chain: B15 chain with D26R
notes: as for B14
B20: GST-MTDH (364-582) N395A (other)
chain: B15 chain with N32A
notes: as for B14
B21: GST-MTDH (364-582) E400R (other)
chain: B15 chain with E37R
notes: as for B14

In the first assay the target is B15. Description: pull-down by GST-MTDH (364-582) on glutathione resin, SDS-PAGE, Coomassie blue; normalised percentage of binding, mean±SEM of three experiments. The source says: (§1) The proteins bound to GS4B were examined on SDS-PAGE and visualized by Coomassie blue staining. […] The bound proteins were examined as in (FIG. 22A). For both (FIG. 22A) and (FIG. 22B), experiments were repeated three times; representative results are shown. The normalized percentage of binding was averaged from three experiments; mean±SEM was shown below the data. (FIG. 22C) HEK293T cells were transfected with human HA-SND1, WT Myc-MTDH or Myc-MTDH with indicated single point mutation. Lysates were immunoprecipitated with anti-Myc antibody and immunoblotted with the indicated antibodies. (FIG. 22D) HEK293T cells were transfected with human Myc-MTDH, WT HA-SND1 or mutant HA-SND1 with indicated single point mutations or deletions. Lysates were immunoprecipitated with anti-Myc and immunoblotted with the indicated antibodies.
(§2) GST-Mediated Pull-Down Assay: ˜20 μg of GST-MTDH (different truncation forms and site mutants) was bound to 10 μl of glutathione resin via GST tag. The resin was washed with 200 μl assay buffer (25 mM Tris, PH8.0, 150 mM NaCl, 3 mM DTT) three times to remove the excess unbound protein. […] The mixture was washed with 200 μl assay buffer twice before examined by SDS-PAGE, and visualized by Coomassie blue staining. The experiments were repeated 3 times and the ratio of SND1 associated with GST-MTDH was analyzed by ImageJ.
As for B1, the % Maximum binding amounted to 9%.

Take B2: the “% Maximum binding” value amounted to 100%. On the same count and under the same terms, the value for B3 was 9%.

In the case of B4, the “% Maximum binding” value amounted to 70%. On the same count and under the same terms, the value for B5 was 2%. As to B6, the “% Maximum binding” value is 88%. Still for that read-out and setting: in the case of B7 it was 67%; in that of B8, 26%; in that of B9, 2%.

A further assay deals with T1, HA-SND1, full-length human, wild type (human, UniProt Q7KZF4 1-910).
T1 construct: Full-length, HA-tagged; Expressed in HEK293T cells, tested in lysate; also called HA-tagged SND1; WT HA-SND1
T1 sequence: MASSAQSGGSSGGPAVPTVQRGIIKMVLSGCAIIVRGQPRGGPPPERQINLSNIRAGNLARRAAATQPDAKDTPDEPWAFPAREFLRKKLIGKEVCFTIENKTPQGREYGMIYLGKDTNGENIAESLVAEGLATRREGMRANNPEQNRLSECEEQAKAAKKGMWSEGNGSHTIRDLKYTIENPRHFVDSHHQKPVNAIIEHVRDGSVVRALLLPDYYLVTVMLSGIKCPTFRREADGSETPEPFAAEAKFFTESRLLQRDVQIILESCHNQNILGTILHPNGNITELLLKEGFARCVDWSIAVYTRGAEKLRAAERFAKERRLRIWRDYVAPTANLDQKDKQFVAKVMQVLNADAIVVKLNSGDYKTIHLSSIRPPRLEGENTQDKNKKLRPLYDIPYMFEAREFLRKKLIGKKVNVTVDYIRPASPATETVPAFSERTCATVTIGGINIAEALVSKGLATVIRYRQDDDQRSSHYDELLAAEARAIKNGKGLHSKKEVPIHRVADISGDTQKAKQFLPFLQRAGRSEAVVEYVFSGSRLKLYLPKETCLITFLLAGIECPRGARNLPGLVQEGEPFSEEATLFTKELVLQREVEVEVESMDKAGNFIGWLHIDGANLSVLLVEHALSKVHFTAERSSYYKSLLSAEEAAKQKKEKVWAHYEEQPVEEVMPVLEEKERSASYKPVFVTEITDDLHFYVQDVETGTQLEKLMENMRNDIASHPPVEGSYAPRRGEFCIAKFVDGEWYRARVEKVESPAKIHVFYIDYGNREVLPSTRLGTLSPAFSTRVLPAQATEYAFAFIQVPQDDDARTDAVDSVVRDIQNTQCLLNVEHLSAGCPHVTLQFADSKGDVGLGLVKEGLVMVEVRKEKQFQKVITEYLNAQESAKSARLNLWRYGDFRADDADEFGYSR
Description: co-IP (anti-Myc) from HEK293T lysates, western blot. Background: A western blot detects proteins with antibodies after separation by electrophoresis.
Regarding B10, the binding result was “binds”. Still for that read-out and setting: in the case of B11 it was “binds”; in that of B12, “binds”.

With B13, the binding result is “binds”.

A further assay deals with B2. Description: GST titration pull-down: GST-MTDH (386-407) on glutathione resin, SND1 (SN1/2) at 10, 3, 1, 0.5, 0.25, 0.12 (the sheet prints mM, paragraph 254 says µM), SDS-PAGE, Coomassie blue.
Consider B14, for which the “Estimated Binding Affinity” value is about 1.2 µM. As to SSADPNSDWNDPAEEWGNWVDE (other, member of the group m64) [A396D], the “Estimated Binding Affinity” value was about 1.5 µM.

For a further assay, the target named is B2. Description: GST pull-down on glutathione resin, SDS-PAGE, Coomassie blue; normalised percentage of binding, mean±SEM of three experiments.
Description: as §1, §2
Identification of MTDH and SND1 mutants deficient in binding: To gain insight into how the interface characterized above contributes to MTDH-SND1 interaction, structure-guided mutagenesis studies were performed.
With B15, the “% Maximum binding” value turned out to be 100%. The same measure, in the same setting: in the case of B16 it was 46%; in that of B17, 80%. On the same count and under the same terms, in the case of B18 it was 68%; in that of B19, 60%; in that of B20, 84%. With B21, the “% Maximum binding” value turned out to be 70%.
